Key:
[1] = molecular target: T1, recombinant human matrix metalloproteinase-2 (重组人基质金属蛋白酶-2) (Homo sapiens, UniProt P08253); test: In vitro inhibition of matrix metalloproteinase-2 (fluorogenic peptide cleavage); format: biochemical; settings: MMP-2; substrate Mca-Pro-Leu-Gly-Leu-Dpa-Ala-Arg-NH2; pH 7.4; 37 °C; 100 μl
T1 construct: 该酶用0.01μM的基质金属蛋白酶-3活性位点活化; made in house; host or cells: E. coli
T1 sequence (P08253 110-660): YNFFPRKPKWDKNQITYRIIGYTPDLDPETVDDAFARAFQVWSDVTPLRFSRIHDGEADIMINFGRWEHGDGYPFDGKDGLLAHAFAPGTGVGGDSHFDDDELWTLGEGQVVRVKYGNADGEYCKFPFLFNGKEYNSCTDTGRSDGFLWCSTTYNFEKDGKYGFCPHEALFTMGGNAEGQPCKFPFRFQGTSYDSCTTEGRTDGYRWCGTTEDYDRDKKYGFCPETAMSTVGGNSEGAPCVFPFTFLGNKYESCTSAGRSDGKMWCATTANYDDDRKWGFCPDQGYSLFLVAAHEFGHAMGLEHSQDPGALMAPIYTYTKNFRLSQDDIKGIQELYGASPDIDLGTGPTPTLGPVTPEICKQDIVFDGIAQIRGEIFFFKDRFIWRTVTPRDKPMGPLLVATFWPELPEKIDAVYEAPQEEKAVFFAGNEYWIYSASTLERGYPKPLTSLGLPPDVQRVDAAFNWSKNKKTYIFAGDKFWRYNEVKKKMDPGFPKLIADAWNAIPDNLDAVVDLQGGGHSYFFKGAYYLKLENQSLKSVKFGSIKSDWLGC

[2] = molecular target: recombinant human matrix metalloproteinase-9 (重组人基质金属蛋白酶-9) (Homo sapiens, UniProt P14780); test: In vitro inhibition of matrix metalloproteinase-9 (fluorogenic peptide cleavage); format: biochemical; settings: MMP-9; same fluorogenic substrate, 10 μM final; 37 °C; 100 μl
Sequence of recombinant human matrix metalloproteinase-9 (重组人基质金属蛋白酶-9) (P14780 94-707): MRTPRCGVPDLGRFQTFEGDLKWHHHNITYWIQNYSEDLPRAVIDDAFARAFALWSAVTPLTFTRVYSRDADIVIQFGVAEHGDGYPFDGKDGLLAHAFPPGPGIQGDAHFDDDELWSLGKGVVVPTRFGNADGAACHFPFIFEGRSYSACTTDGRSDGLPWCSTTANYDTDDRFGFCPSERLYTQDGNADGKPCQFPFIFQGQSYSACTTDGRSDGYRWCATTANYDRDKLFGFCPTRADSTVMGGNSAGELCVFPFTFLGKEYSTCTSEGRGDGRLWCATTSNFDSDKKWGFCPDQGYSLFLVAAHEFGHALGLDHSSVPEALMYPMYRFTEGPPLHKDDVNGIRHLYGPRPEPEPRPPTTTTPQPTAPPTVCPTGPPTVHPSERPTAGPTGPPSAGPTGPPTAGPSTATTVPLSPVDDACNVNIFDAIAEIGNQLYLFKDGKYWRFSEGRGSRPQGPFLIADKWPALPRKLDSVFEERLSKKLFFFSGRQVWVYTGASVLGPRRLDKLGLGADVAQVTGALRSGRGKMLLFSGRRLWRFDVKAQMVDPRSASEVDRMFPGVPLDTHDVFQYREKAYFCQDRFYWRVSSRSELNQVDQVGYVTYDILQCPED

[3] = system: human osteoblasts (人成骨细胞); test: Growth of human osteoblasts cultured in vitro (MTT colorimetric assay); format: cell-based; settings: 48 h, absorbance 620 nm

IC50 [1]: 75.1 µM | IC50 [2]: 25.8 µM
Sequence: PEPEFHLISAFWPSLPSYLDAA [实施例1, TIMP-mimetic 22-residue peptide made by Fmoc solid-phase synthesis]
EC50 [3]: 13.2 µM

— patent CN105601719A, “拟组织金属蛋白酶抑制因子多肽及其应用” (Suzhou Puluoda Biological Science and Technology Co Ltd, priority 2016, dated 2016)
